In experiment [1] the target is His-tagged linear tetra-ubiquitin chains (TR-FRET with SHARPIN NZF) (UniProt P0CG48). Nature of the experiment: TR-FRET assay. As to conditions: DMSO; mixed and incubated for 1 h; parent: 100; read off a plot; scale: relative fluorescence intensity.
Experiment [2] deals with Sm-di-ubiquitin (GA mutant) (UniProt P0CG48). Nature of the experiment: NanoBiT assay in HEK293T cells. The note with it: 1 h, transient transfection, cultured 24 h, read off a plot, scale: relative luminescent intensity.

Consider two substances from paper PMC11555115.

On to GST-tagged SHARPIN NZF T351A; F352A, for which the percent of parent in experiment [1] was 38.

For the substance “Lg-HOIL-1L NZF WT (from UniProt Q9WUB0) TR-AA”, the percent of parent in experiment [2] (DMSO, parent: 100) was determined as 52. The response came out at 37 in experiment [2] (FSL0717 10 μM, parent: est. 60) and 43 in experiment [2] (FSL0720 10 μM, parent: est. 50).
